The text below walks through data of patent publication US20170067045A1 (Bicycle, published 2017).

*1 amine or outer side, *2 acyl side, *3 side chain or, on linkers, in order; H or OH if unused. Bridges are numbered along the chain shown (N, C = ends). Where no end group is shown, it is not given here. tris(bromomethyl)mesitylene = scaffold as named in the source, Cc1c(C[*:1])c(C)c(C[*:3])c(C)c1C[*:2]; THME(IAc3) = trishydroxymethylethane trisiodoacetate, CC(COC(=O)C[*:1])(COC(=O)C[*:2])COC(=O)C[*:3]; TBMB = c1c(C[*:1])cc(C[*:3])cc1C[*:2] Bounds are passed on as bounds.

One assay concerns the target kallikrein (UniProt P03952 20-638, limits assumed). As to the kind of experiment: cell-based or functional assay.
Assay [1] addresses T1, MDM2 (res 2-125) (UniProt Q00987 2-125).
T1 construct: range 2-125; Titrant in the fluorescence anisotropy experiments
Kind of assay: fluorescence anisotropy.

Assay [2] concerns the target T1, MDM2 (res 2-125). As to the kind of experiment: fluorescence anisotropy titration (intrinsic Trp fluorescence), 23 C, PBS, 5 mM DTT.
Protocol: (§1) Titration experiments were run on a Horiba Jobin Yvon fluorimeter equipped with the Hamilton Microlab titrator controlled by laboratory software. The λₑₓ and λₑₘ used were 295 nm and 350 nm, respectively. The slit widths for excitation and emission were 5 nm and 15 nm and the integration time 1 Os was used for each measurement. […] The experiments were performed at 23° C. in PBS, 5 mM DTT. […] Titration data were analyzed with a standard 1:1 binding model by using the quadratic solution to the equilibrium Kd=[A][B]/[AB]. […] The fitting equation contained an extra term to account for linear drift.
Assay [3] addresses T1, MDM2 (res 2-125). As to the kind of experiment: fluorescence anisotropy titration, excitation 295 nm, 23 C, PBS, 5 mM DTT.
Protocol: as §1
In assay [4] the target is T1, MDM2 (res 2-125). As to the kind of experiment: fluorescence anisotropy titration, excitation 280 nm, 23 C, PBS, 5 mM DTT.

T1 sequence (Q00987 2-125 limits assumed): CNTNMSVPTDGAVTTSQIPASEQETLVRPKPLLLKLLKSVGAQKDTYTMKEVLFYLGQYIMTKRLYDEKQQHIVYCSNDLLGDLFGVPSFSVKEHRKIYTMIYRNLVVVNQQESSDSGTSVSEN
kallikrein, sequence (P03952 20-638 limits assumed): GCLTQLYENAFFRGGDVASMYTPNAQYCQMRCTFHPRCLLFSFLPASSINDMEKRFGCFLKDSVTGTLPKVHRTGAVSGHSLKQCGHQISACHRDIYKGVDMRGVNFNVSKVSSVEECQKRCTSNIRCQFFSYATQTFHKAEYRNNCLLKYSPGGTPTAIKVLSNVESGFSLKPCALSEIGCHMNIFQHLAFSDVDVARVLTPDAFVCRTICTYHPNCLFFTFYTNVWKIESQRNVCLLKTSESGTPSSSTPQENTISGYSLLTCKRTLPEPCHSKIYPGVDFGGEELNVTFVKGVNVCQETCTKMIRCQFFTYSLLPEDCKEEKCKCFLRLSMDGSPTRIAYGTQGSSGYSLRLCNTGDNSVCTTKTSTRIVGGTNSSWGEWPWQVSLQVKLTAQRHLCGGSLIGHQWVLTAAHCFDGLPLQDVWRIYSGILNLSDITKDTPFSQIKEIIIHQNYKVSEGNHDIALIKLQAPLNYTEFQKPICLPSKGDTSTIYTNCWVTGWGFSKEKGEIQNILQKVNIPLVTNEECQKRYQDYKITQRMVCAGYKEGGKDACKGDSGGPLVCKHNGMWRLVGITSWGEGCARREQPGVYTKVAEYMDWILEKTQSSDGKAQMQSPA

For the molecule ACSDRFRNMPADEALCG (both cysteines and the single methionine conjugated to TBMB) [PK15 with central cysteine altered to methionine, TBMB conjugate, first of two HPLC products], in the assay with kallikrein, the “IC50 of inhibition of kallikrein activity” value was above 10000 nM.
In the case of ACSDRFRNCPADEALCG (linker 2-9-16 via tris(bromomethyl)mesitylene) [PK15 conjugated with tris(bromomethyl)mesitylene], the “IC50 of inhibition of kallikrein (Z-Phe-Arg-AMC substrate, fluorescence)” value with kallikrein turned out to be 150 nM.
Same read-out and setting: the value for ACSDRFRNCPADEALCG (linker 2-9-16 via TBMB; also: thioether links to TBMB oxidised to sulphones) [oxidized PK15-TBMB (sulphone)] was 1300 nM.

B1: PEP48-3s1 conjugate (TBMB) (peptide)
peptide: SDDCVRFGWTCPTVMCG
modifications: linker 4-11-16 via TBMB
notes: PEP48 derivative with the second loop re-selected
As to B1, the Kd in the assay with MDM2 (res 2-125) [1] was in the range of 27 to 100 nM.

B2: PEP10 synthetic peptide conjugated with TBMB (peptide)
peptide: H-SCELWNPKCRLSPFECKG-OH
modifications: linker 2-9-16 via TBMB
notes: The anisotropy paragraph says only 'peptides 10, 48'; also called peptide 10
As to B2, the Kd is 250 to 750 nM with MDM2 (res 2-125) [2] and 267 nM with MDM2 (res 2-125) [3].

B3: PEP48-3s1 conjugated with THME(IAc3), HPLC peak / stereoisomer with affinity 640 nM (peptide)
peptide: SDDCVRFGWTCPTVMCG
modifications: linker 4-11-16 via THME(IAc3); also: one of two stereoisomers (HPLC peaks), not assigned
notes: One of two HPLC peaks of identical mass (expected stereoisomers); also called PEP48-3s1-THME(IAc3)
In the assay with MDM2 (res 2-125) [1], B3 yielded a Kd of 640 nM. This counts as sub-micromolar.

B4: PEP48-3s1 conjugated with THME(IAc3), HPLC peak / stereoisomer with affinity 1600 nM (peptide)
peptide: SDDCVRFGWTCPTVMCG
modifications: linker 4-11-16 via THME(IAc3); also: one of two stereoisomers (HPLC peaks), not assigned
notes: The other of two HPLC peaks of identical mass (expected stereoisomers); also called PEP48-3s1-THME(IAc3)
In the case of B4, in the assay with MDM2 (res 2-125) [1], binding was characterised by a dissociation constant (Kd) of 1600 nM.

B5: PEP48 synthetic peptide conjugated with TBMB (peptide)
peptide: H-SCVRFGWTCDNSWHGCKG-OH
modifications: linker 2-9-16 via TBMB
notes: The anisotropy paragraph says only 'peptides 10, 48'; also called peptide 48
With B5, the Kd was 250 to 750 nM with MDM2 (res 2-125) [2], 567 nM in the assay with MDM2 (res 2-125) [3] and 760 nM with MDM2 (res 2-125) [4].
Regarding ACSDRFRNCPADEALCG (linker 2-9-16 via tris(bromoethyl)mesitylene) [PK15 conjugated with tris(bromoethyl)mesitylene], the “IC50 of inhibition of kallikrein (Z-Phe-Arg-AMC substrate, fluorescence)” value with kallikrein is around 400 nM.
ACSDRFRNMPADEALCG (both cysteines and the single methionine conjugated to TBMB) [PK15 with central cysteine altered to methionine, TBMB conjugate, second of two HPLC products]: the “IC50 of inhibition of kallikrein activity” value in the assay with kallikrein was above 10000 nM.
On to ACSDRFRNCPADEALCG (linker 2-9-16 via TBMB) [PK15-TBMB], for which, in the assay with kallikrein, the “IC50 of inhibition of kallikrein (Z-Phe-Arg-AMC substrate, fluorescence)” value amounted to 13 nM.

B6: oxidized PK15-TBMB (sulphoxides, +3 oxygen atoms) (peptide)
peptide: ACSDRFRNCPADEALCG
modifications: linker 2-9-16 via TBMB; also: thioether links to TBMB oxidised to sulphoxides (stereoisomer mixture)
As for B6, the “IC50 of inhibition of kallikrein (Z-Phe-Arg-AMC substrate, fluorescence)” value with kallikrein was around 2400 nM.
